Target: Mycoplasma penetrans methionyl-tRNA synthetase, full-length, M568A variant (Mycoplasma penetrans)
Assay: SEC-MALS; size exclusion chromatography with multiangle light scattering of the purified enzyme in solution; conditions not told in the main text

## Mycoplasma penetrans methionyl-tRNA synthetase, full-length, M568A variant (enzyme)
  stoichiometry N: 2
